Measurements taken from paper PMC8027116 (2021).
One block for each binder: values may come before it.

How the values were obtained:
Assay in all cases: activation reporter or marker
[1] = target: T1, insulin B-chain peptide on HLA-DRA*01:01 / HLA-DRB1*04:01 (human)
T1 peptide: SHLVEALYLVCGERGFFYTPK

[2] = target: T2, preproinsulin peptide on HLA-DRA*01:01 / HLA-DRB1*03:01 (human)
T2 peptide: QKRGIVEQCCTSICS

[3] = target: T3, preproinsulin peptide on HLA-DQA1*05:01 / HLA-DQB1*02:01 (human)
T3 peptide: YLVCGERGFFYTPKT

[4] = target: T4, preproinsulin peptide on HLA-DQA1*05:01 / HLA-DQB1*02:02 (human)
T4 peptide: YLVCGERGFFYTPKT

[5] = target: T5, preproinsulin peptide on HLA-DRA*01:01 / HLA-DRB1*03:01 (human)
T5 peptide: AEDLQVGQVELGGGP

[6] = target: T6, preproinsulin peptide on HLA-DRA*01:01 / HLA-DRB1*09:01 (human)
T6 peptide: AEDLQVGQVELGGGP

binding result [1]: no recognition
B1: 23.G8 (TCR)
alpha TRAV39 TRAJ56 CDR3: CAWRTGANSKLTF
beta TRBV24-1 TRBJ2-2 CDR3: CATGLAANTGELFF

binding result [2]: no recognition
B2: 95.A9-1 (TCR)
alpha TRAV9-2 TRAJ18 CDR3: CALRTDRGSTLGRLYF
beta TRBV11-2 TRBJ1-6 CDR3: CASSLQSSYNSPLHF

binding result [3]: recognises | binding result [4]: recognises
B3: 56.B1 (TCR)
alpha TRAV13-1 TRAJ40 CDR3: CAVLSPSGTYKYIF
beta TRBV7-9 TRBJ1-4 CDR3: CASSLMGNPHEKLFF

binding result [5]: no recognition | binding result [6]: no recognition
B4: 55.C10 (TCR)
alpha TRAV26-1 TRAJ26 CDR3: CIVRSHGQNFVF
beta TRBV20-1 TRBJ2-7 CDR3: CSARPGTRNYEQYF
